Measured values reported in patent US8399206B2, “Methods for diagnosis, prognosis and methods of treatment” (Nodality, Inc., priority 2008, dated 2013).

Key:
AML myeloblasts (BMMC) = test: SCNP of paired diagnosis and relapse AML BMMC and independent diagnostic set (Example 5); type: cell-based, human; details: paired diagnosis samples of Patients 1 and 2
Description: All AML bone marrow mononuclear cells (BMMC) were derived from the bone marrow (BM) of AML patients treated at MD Anderson Cancer Center (MDACC) between September 1999 and September 2006. Clinical data were de-identified in compliance with Health Insurance Portability and Accountability Act regulations. Patient/sample inclusion criteria required a diagnosis of French-American-British (FAB) classification of M0 through M7 AML (excluding M3) AML, collection prior to therapy initiation and at least 50% viability upon sample thaw. For the identification of chemoresistant signaling profiles, two longitudinally paired BMMC samples at diagnosis (collection prior to the initiation of induction chemotherapy) and first relapse, were examined. An independent test set comprised of 47 BMMC samples collected at diagnosis from AML patients with a disease response of CR after high dose cytarabine based chemotherapy was used to assess the ability of the identified signaling profiles to predict disease relapse. Healthy, unstimulated BMMC (n=2) were purchased from a commercial source (All Cells) to serve as a control. All samples underwent fractionation over Ficoll-Hypaque prior to cryopreservation with 90% fetal bovine serum and 10% dimethyl sulfoxide and storage in liquid nitrogen.
The SCNP assay measured response to growth factors and cytokines involved in hematopoietic progenitor or myeloid biology (SCF, FLT3L, G-CSF, IL-27), drug transporter (ABCG2, MRP-1) and chemokine receptors (CXCR4) associated with adverse disease prognosis in AML, and the c-Kit growth factor receptor for SCF. The SCF and FLT3L-mediated PI3K/Akt and MAPK pathway is important for maintaining the hematopoietic stem cell pool; G-CSF-mediated Jak/STAT pathway activation is important for neutrophilic differentiation of hematopoietic progenitor cells; interleukin (IL)-27 mediated Jak/STAT pathway activation is important in regulating proliferation and differentiation of hematopoietic stem cells; CXCR4 expression is associated with disease relapse and decreased survival; and drug transporter expression levels (i.e. ABCG2 and MRP-1) are known to be associated with adverse prognosis in AML. All together, approximately 20 signaling nodes were evaluated in each sample.
SCNP assays were performed as described previously. Cryopreserved samples were thawed at 37° C. and washed once in warm PBS containing 10% FBS (HyClone, Waltham, Mass., USA) and 2 mM EDTA. […] The cells were re-suspended in RPMI containing 1% FBS, aliquoted to 100,000 cells/condition and rested for 1-2 hours at 37° C. […]

[1] = test system: leukemic myeloblasts and healthy BMMb; test: SCNP in AML patients aged >60 years (ECOG E3999), FLT3-ITD vs FLT3-WT vs healthy BMMb (Example 12); type: cell-based, human; details: FLT3-ITD blasts compared to BMMb
Description: Modulated single cell network profiling (SCNP) was used to evaluate the activation state of intracellular signaling molecules (i.e. nodes), including phosphorylated (p)-Akt, p-Erk, p-S6, p-Stat5 and cleaved-PARP, at baseline and after treatment with specific modulators [including cytokines (such as IL-27) growth factors (such as FLT3 ligand) and drugs (such a cytosine arabinoside)] in 7 healthy bone marrow mononuclear blasts (BMMb) and leukemic myeloblasts, characterized for FLT3 receptor mutation status, from 44 AML patients (38 FLT-WT and 6 FLT3-ITD), aged>60 years (ECOG trial E3999). A total of 64 node-metrics were analyzed.

B1: FLT-3L: fms-like tyrosine kinase receptor-3 ligand (protein, UniProt P49771 27-235, looked up)
Fms-related tyrosine kinase 3 …: TQDCSFQHSPISSDFAVKIRELSDYLLQDYPVTVASNLQDEELCGGLWRLVLAQRWMERLKTVAGSKMQGLLERVNTEIHFVTKCAFQPPPSCLRFVQTNISRLLQETSEQLVALKPWITRQNFSRCLELQCQPDSSTLPPPWSPRPLEATAPTAPQPPLLLLLLLPVGLLLLAAAWCLHWQRTRRRTPRPGEQVPPVPSPQDLLLVEH
responsive cells in diagnostic AML bone marrow samples (AML myeloblasts (BMMC)): ~1%
FLT3 ligand-induced pathway activation [1]: decreased FLT3 ligand-induced activation of P13K and Raf/Ras/Erk pathways

B2: IL-27: interleukin-27 (protein, UniProt Q8NEV9 29-243; Q14213 21-229, looked up)
Interleukin-27 subunit alpha: FPRPPGRPQLSLQELRREFTVSLHLARKLLSEVRGQAHRFAESHLPGVNLYLLPLGEQLPDVSLTFQAWRRLSDPERLCFISTTLQPFHALLGGLGTQGRWTNMERMQLWAMRLDLRDLQRHLRFQVLAAGFNLPEEEEEEEEEEEEERKGLLPGALGSALQGPAQVSWPQLLSTYRLLHSLELVLSRAVRELLLLSKAGHSVWPLGFPTLSPQP
Interleukin-27 subunit beta: RKGPPAALTLPRVQCRASRYPIAVDCSWTLPPAPNSTSPVSFIATYRLGMAARGHSWPCLQQTPTSTSCTITDVQLFSMAPYVLNVTAVHPWGSSSSFVPFITEHIIKPDPPEGVRLSPLAERQLQVQWEPPGSWPFPEIFSLKYWIRYKRQGAARFHRVGPIEATSFILRAVRPRARYYVQVAAQDLTDYGELSDWSLPATATMSLGK
responsive subpopulation in diagnosis samples (AML myeloblasts (BMMC)): no IL-27 responsive subpopulation was identified
IL-27 induced activation of the Jak/Stat pathway [1]: minimal IL-27 induced activation of the Jak/Stat pathway
